According to publication PMC3812903 (Biochemistry, 2013):
Where two headings read alike, the source gives them in different places.

Columns and labels:
NarJ = settings: cited from earlier work
DmsD (Escherichia coli) [1] = molecular target: DmsD (Escherichia coli) (UniProt P69853); settings: cited from earlier work
DmsD (Escherichia coli) [2] = molecular target: DmsD (Escherichia coli) (UniProt P69853); settings: cited from earlier work; remark: listed apart in the source
[3] = molecular target: DmsD (His6T7::DmsD construct) (E. coli) (UniProt P69853); experiment: ITC
[4] = molecular target: DmsAL15-41 (DmsA twin-arginine leader peptide, residues 15-41) (UniProt P18775); experiment: ITC; settings: pH 8.0; 30 °C (303.15 K); 100 mM NaCl; 25 mM Tris-HCl (pH 8.0)
[5] = molecular target: DmsAL15-41 KK (DmsA leader peptide residues 15-41, twin arginines changed to lysines) R16K;R17K (UniProt P18775); experiment: ITC; settings: pH 8.0; 30 °C (303.15 K); 100 mM NaCl; 25 mM Tris-HCl (pH 8.0)
[6] = molecular target: DmsAL17-41 (DmsA twin-arginine leader peptide, residues 17-41) (UniProt P18775); experiment: ITC; settings: pH 8.0; 30 °C (303.15 K); 100 mM NaCl; 25 mM Tris-HCl (pH 8.0)
[7] = molecular target: DmsAL21-41 (DmsA twin-arginine leader peptide, residues 21-41) (UniProt P18775); experiment: ITC; settings: pH 8.0; 30 °C (303.15 K); 100 mM NaCl; 25 mM Tris-HCl (pH 8.0)
NarJ (Escherichia coli) = NarJ (Escherichia coli) (UniProt P0AF26); settings: cited from earlier work
TorD (Escherichia coli) = TorD (Escherichia coli) (UniProt P36662); settings: cited from earlier work
Sequence of UniProt P36662 (P36662 whole entry): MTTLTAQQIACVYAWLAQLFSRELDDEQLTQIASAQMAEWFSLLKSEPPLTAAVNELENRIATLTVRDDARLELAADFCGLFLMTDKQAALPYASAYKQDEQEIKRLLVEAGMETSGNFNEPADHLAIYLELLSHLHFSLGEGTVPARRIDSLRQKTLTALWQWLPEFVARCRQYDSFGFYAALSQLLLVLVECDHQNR

Sequence of UniProt P0AF26 (P0AF26 whole entry): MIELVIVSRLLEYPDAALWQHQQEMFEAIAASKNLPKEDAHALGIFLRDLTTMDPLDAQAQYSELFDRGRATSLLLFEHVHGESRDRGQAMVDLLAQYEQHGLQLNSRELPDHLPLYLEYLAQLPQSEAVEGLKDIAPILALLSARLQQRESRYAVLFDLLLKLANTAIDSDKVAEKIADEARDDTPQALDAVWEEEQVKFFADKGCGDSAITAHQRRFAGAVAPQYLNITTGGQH

Kd [3] [µM] | stoichiometry N [3] | dH [3] [kJ/mol] | Substance | other results
2.9 | 1.09 |  | DmsAL_(15–41 KK) (from UniProt P18775 15-41) (peptide) | 
1.7 | 1.04 | -49 | DmsAL_(15–41) (from UniProt P18775 15-41) (peptide) | Ka [3]: 600000 M⁻¹

Continued, substance first:

Substance | Kd [3] [µM] | stoichiometry N [3] | dH [3] [kJ/mol] | other results
15 N-terminal residues of NarG: 15 amino-terminal residues of NarG, contain a remnant RR motif (MSKFLDRFRYFKQKG; UniProt P09152 1-15, looked up, fragment) |  |  |  | Kd (NarJ): ~0.1 µM
DmsA leader peptide 1-43 (from UniProt P18775) |  |  |  | Kd (DmsD (Escherichia coli) [1]): 0.06 µM; Kd (DmsD (Escherichia coli) [2]): 0.2 µM
DmsAL_(17–41) (from UniProt P18775 17-41) (peptide) | 2.1 | 1.04 | -39.7 | 
DmsAL_(21–41) (from UniProt P18775 21-41) (peptide) | 3.9 | 1.14 | -18 | Ka [3]: 260000 M⁻¹
DmsD (Tat proofreading chaperone / redox enzyme maturation protein) |  |  |  | ΔH (apparent, Tris) [4]: -49 kJ/mol; ΔH (apparent, Tris) [5]: -41.8 kJ/mol; ΔH (apparent, Tris) [6]: -39.7 kJ/mol; ΔH (apparent, Tris) [7]: -18 kJ/mol
NarG N-terminal peptide 1-15 (from UniProt P09152) |  |  |  | Kd (NarJ (Escherichia coli)): 0.1 µM
TorA leader peptide (from UniProt P33225) |  |  |  | Kd (TorD (Escherichia coli)): 1.8 µM
